Starred links: 1 amine or outer side, 2 acyl side, 3 side chain; linkers in the order of their positions; H or OH if unused. Non-standard residues stand in square brackets, D forms with d. Groups on a side chain read outwards from the residue. No end group written: not given here. *: point of attachment. C15 diacid = O=C(O)CCCCCCCCCCCCCC(=O)*; γGlu = O=C(O)[C@H](CCC(=O)[*:2])N[*:1]; NMeY = CN[C@@H](Cc1ccc(O)cc1)C(=O)O; AEEA = NCCOCCOCC(=O)O; Aib = CC(C)(N)C(=O)O
T1: full-length human GIPR with an N-terminal FLAG tag (human, UniProt P48546 22-466)
T1 sequence (looked up): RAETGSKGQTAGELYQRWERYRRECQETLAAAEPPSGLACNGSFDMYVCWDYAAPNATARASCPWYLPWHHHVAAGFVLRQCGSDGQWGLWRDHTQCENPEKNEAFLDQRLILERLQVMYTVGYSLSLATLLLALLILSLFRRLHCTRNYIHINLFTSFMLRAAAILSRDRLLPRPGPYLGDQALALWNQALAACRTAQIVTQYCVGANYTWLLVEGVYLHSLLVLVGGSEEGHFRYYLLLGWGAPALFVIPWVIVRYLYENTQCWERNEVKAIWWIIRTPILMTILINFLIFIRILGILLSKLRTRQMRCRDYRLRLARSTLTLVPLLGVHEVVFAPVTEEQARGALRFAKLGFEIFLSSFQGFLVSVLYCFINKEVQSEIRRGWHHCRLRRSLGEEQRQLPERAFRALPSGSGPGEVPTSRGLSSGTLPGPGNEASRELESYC

B1: Compound 129 (peptide)
peptide: [NMeY][Aib]EGTFISDYSI[Aib]K([AEEA-AEEA-γGlu-C15 diacid])DR[Aib]AQ[Aib]DFVNWLLAQSPSSGAPPPS-NH2
modifications: N-terminus assumed
SMILES: CC[C@H](C)[C@H](NC(=O)[C@H](Cc1ccccc1)NC(=O)[C@@H](NC(=O)CNC(=O)[C@H](CCC(=O)O)NC(=O)C(C)(C)NC(=O)[C@H](Cc1ccc(O)cc1)NC)[C@@H](C)O)C(=O)N[C@@H](CO)C(=O)N[C@@H](CC(=O)O)C(=O)N[C@@H](Cc1ccc(O)cc1)C(=O)N[C@@H](CO)C(=O)N[C@H](C(=O)NC(C)(C)C(=O)N[C@@H](CCCCNC(=O)COCCOCCNC(=O)COCCOCCNC(=O)CC[C@H](NC(=O)CCCCCCCCCCCCCC(=O)O)C(=O)O)C(=O)N[C@@H](CC(=O)O)C(=O)N[C@@H](CCCNC(=N)N)C(=O)NC(C)(C)C(=O)N[C@@H](C)C(=O)N[C@@H](CCC(N)=O)C(=O)NC(C)(C)C(=O)N[C@@H](CC(=O)O)C(=O)N[C@@H](Cc1ccccc1)C(=O)N[C@H](C(=O)N[C@@H](CC(N)=O)C(=O)N[C@@H](Cc1c[nH]c2ccccc12)C(=O)N[C@@H](CC(C)C)C(=O)N[C@@H](CC(C)C)C(=O)N[C@@H](C)C(=O)N[C@@H](CCC(N)=O)C(=O)N[C@@H](CO)C(=O)N1CCC[C@H]1C(=O)N[C@@H](CO)C(=O)N[C@@H](CO)C(=O)NCC(=O)N[C@@H](C)C(=O)N1CCC[C@H]1C(=O)N1CCC[C@H]1C(=O)N1CCC[C@H]1C(=O)N[C@@H](CO)C(N)=O)C(C)C)[C@@H](C)CC
B2: Compound 128 (peptide)
peptide: [NMeY][Aib]EGTFISDYSI[Aib]K([AEEA-AEEA-γGlu-C15 diacid])DR[Aib]AQ[Aib]DFVNWLLAQRPSSGAPPPS-NH2
modifications: N-terminus assumed
SMILES: CC[C@H](C)[C@H](NC(=O)[C@H](Cc1ccccc1)NC(=O)[C@@H](NC(=O)CNC(=O)[C@H](CCC(=O)O)NC(=O)C(C)(C)NC(=O)[C@H](Cc1ccc(O)cc1)NC)[C@@H](C)O)C(=O)N[C@@H](CO)C(=O)N[C@@H](CC(=O)O)C(=O)N[C@@H](Cc1ccc(O)cc1)C(=O)N[C@@H](CO)C(=O)N[C@H](C(=O)NC(C)(C)C(=O)N[C@@H](CCCCNC(=O)COCCOCCNC(=O)COCCOCCNC(=O)CC[C@H](NC(=O)CCCCCCCCCCCCCC(=O)O)C(=O)O)C(=O)N[C@@H](CC(=O)O)C(=O)N[C@@H](CCCNC(=N)N)C(=O)NC(C)(C)C(=O)N[C@@H](C)C(=O)N[C@@H](CCC(N)=O)C(=O)NC(C)(C)C(=O)N[C@@H](CC(=O)O)C(=O)N[C@@H](Cc1ccccc1)C(=O)N[C@H](C(=O)N[C@@H](CC(N)=O)C(=O)N[C@@H](Cc1c[nH]c2ccccc12)C(=O)N[C@@H](CC(C)C)C(=O)N[C@@H](CC(C)C)C(=O)N[C@@H](C)C(=O)N[C@@H](CCC(N)=O)C(=O)N[C@@H](CCCNC(=N)N)C(=O)N1CCC[C@H]1C(=O)N[C@@H](CO)C(=O)N[C@@H](CO)C(=O)NCC(=O)N[C@@H](C)C(=O)N1CCC[C@H]1C(=O)N1CCC[C@H]1C(=O)N1CCC[C@H]1C(=O)N[C@@H](CO)C(N)=O)C(C)C)[C@@H](C)CC
B3: Compound 125 (peptide)
peptide: [NMeY][Aib]EGTFISDYSIAK([Gly-Gly-Gly-Gly-Gly-γGlu-C15 diacid])DR[Aib]AQ[Aib]NFVNWLLAQSPSSGAPPPS-NH2
modifications: N-terminus assumed
SMILES: CC[C@H](C)[C@H](NC(=O)[C@H](CO)NC(=O)[C@H](Cc1ccc(O)cc1)NC(=O)[C@H](CC(=O)O)NC(=O)[C@H](CO)NC(=O)[C@@H](NC(=O)[C@H](Cc1ccccc1)NC(=O)[C@@H](NC(=O)CNC(=O)[C@H](CCC(=O)O)NC(=O)C(C)(C)NC(=O)[C@H](Cc1ccc(O)cc1)NC)[C@@H](C)O)[C@@H](C)CC)C(=O)N[C@@H](C)C(=O)N[C@@H](CCCCNC(=O)CNC(=O)CNC(=O)CNC(=O)CNC(=O)CNC(=O)CC[C@H](NC(=O)CCCCCCCCCCCCCC(=O)O)C(=O)O)C(=O)N[C@@H](CC(=O)O)C(=O)N[C@@H](CCCNC(=N)N)C(=O)NC(C)(C)C(=O)N[C@@H](C)C(=O)N[C@@H](CCC(N)=O)C(=O)NC(C)(C)C(=O)N[C@@H](CC(N)=O)C(=O)N[C@@H](Cc1ccccc1)C(=O)N[C@H](C(=O)N[C@@H](CC(N)=O)C(=O)N[C@@H](Cc1c[nH]c2ccccc12)C(=O)N[C@@H](CC(C)C)C(=O)N[C@@H](CC(C)C)C(=O)N[C@@H](C)C(=O)N[C@@H](CCC(N)=O)C(=O)N[C@@H](CO)C(=O)N1CCC[C@H]1C(=O)N[C@@H](CO)C(=O)N[C@@H](CO)C(=O)NCC(=O)N[C@@H](C)C(=O)N1CCC[C@H]1C(=O)N1CCC[C@H]1C(=O)N1CCC[C@H]1C(=O)N[C@@H](CO)C(N)=O)C(C)C
B4: Compound 127 (peptide)
peptide: [NMeY][Aib]EGTFISDYSIALDRK([AEEA-AEEA-γGlu-C15 diacid])AQ[Aib]NFVNWLLAQSPSSGAPPPS-NH2
modifications: N-terminus assumed
SMILES: CC[C@H](C)[C@H](NC(=O)[C@H](CO)NC(=O)[C@H](Cc1ccc(O)cc1)NC(=O)[C@H](CC(=O)O)NC(=O)[C@H](CO)NC(=O)[C@@H](NC(=O)[C@H](Cc1ccccc1)NC(=O)[C@@H](NC(=O)CNC(=O)[C@H](CCC(=O)O)NC(=O)C(C)(C)NC(=O)[C@H](Cc1ccc(O)cc1)NC)[C@@H](C)O)[C@@H](C)CC)C(=O)N[C@@H](C)C(=O)N[C@@H](CC(C)C)C(=O)N[C@@H](CC(=O)O)C(=O)N[C@@H](CCCNC(=N)N)C(=O)N[C@@H](CCCCNC(=O)COCCOCCNC(=O)COCCOCCNC(=O)CC[C@H](NC(=O)CCCCCCCCCCCCCC(=O)O)C(=O)O)C(=O)N[C@@H](C)C(=O)N[C@@H](CCC(N)=O)C(=O)NC(C)(C)C(=O)N[C@@H](CC(N)=O)C(=O)N[C@@H](Cc1ccccc1)C(=O)N[C@H](C(=O)N[C@@H](CC(N)=O)C(=O)N[C@@H](Cc1c[nH]c2ccccc12)C(=O)N[C@@H](CC(C)C)C(=O)N[C@@H](CC(C)C)C(=O)N[C@@H](C)C(=O)N[C@@H](CCC(N)=O)C(=O)N[C@@H](CO)C(=O)N1CCC[C@H]1C(=O)N[C@@H](CO)C(=O)N[C@@H](CO)C(=O)NCC(=O)N[C@@H](C)C(=O)N1CCC[C@H]1C(=O)N1CCC[C@H]1C(=O)N1CCC[C@H]1C(=O)N[C@@H](CO)C(N)=O)C(C)C
B5: Compound 126 (peptide)
peptide: [NMeY][Aib]EGTFISDYSIAK([Gly-Gly-Gly-Gly-Gly-γGlu-C15 diacid])DR[Aib]AQ[Aib]DFVNWLLAQRPSSGAPPPS-NH2
modifications: N-terminus assumed
SMILES: CC[C@H](C)[C@H](NC(=O)[C@H](CO)NC(=O)[C@H](Cc1ccc(O)cc1)NC(=O)[C@H](CC(=O)O)NC(=O)[C@H](CO)NC(=O)[C@@H](NC(=O)[C@H](Cc1ccccc1)NC(=O)[C@@H](NC(=O)CNC(=O)[C@H](CCC(=O)O)NC(=O)C(C)(C)NC(=O)[C@H](Cc1ccc(O)cc1)NC)[C@@H](C)O)[C@@H](C)CC)C(=O)N[C@@H](C)C(=O)N[C@@H](CCCCNC(=O)CNC(=O)CNC(=O)CNC(=O)CNC(=O)CNC(=O)CC[C@H](NC(=O)CCCCCCCCCCCCCC(=O)O)C(=O)O)C(=O)N[C@@H](CC(=O)O)C(=O)N[C@@H](CCCNC(=N)N)C(=O)NC(C)(C)C(=O)N[C@@H](C)C(=O)N[C@@H](CCC(N)=O)C(=O)NC(C)(C)C(=O)N[C@@H](CC(=O)O)C(=O)N[C@@H](Cc1ccccc1)C(=O)N[C@H](C(=O)N[C@@H](CC(N)=O)C(=O)N[C@@H](Cc1c[nH]c2ccccc12)C(=O)N[C@@H](CC(C)C)C(=O)N[C@@H](CC(C)C)C(=O)N[C@@H](C)C(=O)N[C@@H](CCC(N)=O)C(=O)N[C@@H](CCCNC(=N)N)C(=O)N1CCC[C@H]1C(=O)N[C@@H](CO)C(=O)N[C@@H](CO)C(=O)NCC(=O)N[C@@H](C)C(=O)N1CCC[C@H]1C(=O)N1CCC[C@H]1C(=O)N1CCC[C@H]1C(=O)N[C@@H](CO)C(N)=O)C(C)C

Legend:
[1] = target: full-length human GLP-1R with an N-terminal FLAG tag (human, UniProt P43220 24-463); assay: cell-based or functional assay
[2] = target: T1, full-length human GIPR with an …; assay: cell-based or functional assay

Binder | Human GLP1R cAMP HEK293T EC50 [1] | Human GIPR cAMP, HEK293T EC50 [2]
B1 | 1000 nM | 0.0005 nM
[NMeY][Aib]EGTFISDYSI[Aib]KDR[Aib]AQ[Aib]NFVNWLLAQRPSSKKKKKK-NH2 (not fully specified (residue 14, N-terminus)) [Compound 124] | 126 nM | 0.004 nM
B2 | 457 nM | 0.0004 nM
B3 | 166 nM | 0.0002 nM
B4 | 66.1 nM | 0.0005 nM
[NMeY][Aib]EGTFISDYSIALDR[Aib]AQ[Aib]KFVNWLLAQRPSSGAPPPS-NH2 (not fully specified (residue 21)) [Compound 130] | 91.2 nM | 0.0004 nM
B5 | 589 nM | 0.0002 nM
[NMeY][Aib]EGTFISDYSI[Aib]LDRKAQ[Aib]NFVNWLLAQRPSSGAPPPS-NH2 (not fully specified (residue 17)) [Compound 122] | 20.4 nM | 0.0004 nM
[NMeY][Aib]EGTFISDYSI[Aib]LDR[Aib]AQ[Aib]NFVNWLLAQKPSSGAPPPS-NH2 (not fully specified (residue 30)) [Compound 123] | 22.9 nM | 0.0004 nM
